# Data from paper PMC10699845, “Light quality regulates plant biomass and fruit quality through a photoreceptor-dependent HY5-LHC/CYCB module in tomato”.
# T1: SlHY5 (Solanum lycopersicum, UniProt Q9SM50 1-158)
# T1 sequence: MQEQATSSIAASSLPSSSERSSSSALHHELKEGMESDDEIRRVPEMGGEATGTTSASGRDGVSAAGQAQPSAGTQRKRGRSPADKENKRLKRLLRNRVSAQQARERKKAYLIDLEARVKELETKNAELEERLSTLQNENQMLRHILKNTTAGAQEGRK
# B1: SlLHCA probe (dsDNA)
# DNA 1: CAAATTGGTGACAACGTACATTCTGGCA
# DNA 2: TGCCAGAATGTACGTTGTCACCAATTTG
# B2: SlCYCB-m probe (dsDNA)
# DNA 1: ACGTGTTTATTTTTTACTTTAAGATTTTG
# DNA 2: CAAAATCTTAAAGTAAAAAATAAACACGT
# B3: SlCYCB probe (dsDNA)
# DNA 1: ACGTGTTTATTTTTTACTTTAAGAACGTG
# DNA 2: CACGTTCTTAAAGTAAAAAATAAACACGT
# B4: SlLHCA-m probe (dsDNA)
# DNA 1: CAAATTGGTGACATTTTACATTCTGGCA
# DNA 2: TGCCAGAATGTAAAATGTCACCAATTTG
# B5: SlLHCB-m probe (dsDNA)
# DNA 1: CTGCTTAGTTGTTTTTCTTGTAATCCTC
# DNA 2: GAGGATTACAAGAAAAACAACTAAGCAG
# B6: SlLHCB probe (dsDNA)
# DNA 1: CTGCTTAGTTGTACGTCTTGTAATCCTC
# DNA 2: GAGGATTACAAGACGTACAACTAAGCAG
# Target: T1, SlHY5
# Assay: EMSA; LightShift Chemiluminescent EMSA kit (Thermo 20148); buffer, salt, pH and temperature not stated
# Details: protein: recombinant, tags: His, chain copies: 2, blunt
row,Binder,binding result
1,B1,binds
2,B2,no binding
3,B3,binds
4,B4,no binding
5,B5,no binding
6,B6,binds
